The text below walks through data of patent US20230265179A1 (TWIST BIOSCIENCE, published 2023).

Positions count from the first letter of the chain named.

T1: IL1RL2 (UniProt Q9HB29 20-335, limits assumed)
T1 construct: Soluble analyte of the SPR runs
T1 sequence (looked up): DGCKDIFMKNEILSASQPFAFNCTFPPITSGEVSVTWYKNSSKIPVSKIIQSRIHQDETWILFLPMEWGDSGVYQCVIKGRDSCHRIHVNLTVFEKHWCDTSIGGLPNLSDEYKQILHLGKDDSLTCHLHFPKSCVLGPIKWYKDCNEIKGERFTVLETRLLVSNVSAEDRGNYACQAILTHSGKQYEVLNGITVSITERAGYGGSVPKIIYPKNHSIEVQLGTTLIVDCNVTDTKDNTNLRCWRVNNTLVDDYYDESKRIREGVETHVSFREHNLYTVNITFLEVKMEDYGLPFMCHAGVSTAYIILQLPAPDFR

T2: IL1RL2 over-expressed on Expi293 cells (UniProt Q9HB29 20-575, limits assumed)
T2 construct: whole, on cells; Target of the flow cytometry assay; MFI ratio is over-expressing cells over parent cells
T2 sequence (looked up): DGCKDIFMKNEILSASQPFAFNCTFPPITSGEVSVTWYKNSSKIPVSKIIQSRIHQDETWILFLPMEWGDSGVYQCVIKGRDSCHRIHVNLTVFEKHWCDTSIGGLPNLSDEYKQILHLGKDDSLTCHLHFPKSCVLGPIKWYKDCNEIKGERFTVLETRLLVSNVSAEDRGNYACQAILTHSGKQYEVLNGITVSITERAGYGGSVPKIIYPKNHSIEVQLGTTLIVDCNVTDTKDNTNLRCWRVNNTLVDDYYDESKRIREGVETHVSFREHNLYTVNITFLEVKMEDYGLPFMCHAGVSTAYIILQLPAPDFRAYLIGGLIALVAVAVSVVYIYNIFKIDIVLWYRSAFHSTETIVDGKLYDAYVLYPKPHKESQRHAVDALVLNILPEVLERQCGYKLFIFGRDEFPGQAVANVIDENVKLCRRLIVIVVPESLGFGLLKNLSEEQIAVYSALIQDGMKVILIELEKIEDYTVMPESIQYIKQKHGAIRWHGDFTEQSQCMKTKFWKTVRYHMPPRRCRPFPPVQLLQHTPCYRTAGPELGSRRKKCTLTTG

B1: IL1RL2-22 (VHH)
VHH: EVQLVESGGGLVQPGGSLRLSCAASGRTFGSYAMGWFRQAPGKEREFVAAINWSGARTYYADSVKGRFTISADNSKNTAYLQMNSLKPEDTAVYYCAVSQPLNYYTYYDARRYDWGQGTLVTVSS
notes: VHH-Fc based on IgG2 Fc
B2: IL1RL2-12 (VHH)
VHH: EVQLVESGGGLVQPGGSLRLSCAASGPMSSSAVMGWFRQAPGKEREFVAVVTRWSGARTVYADSVKGRFTISADNSKNTAYLQMNSLKPEDTAVYYCAVSQPLNYYTYYDPRRYDWGQGTLVTVSS
notes: VHH-Fc based on IgG2 Fc
B3: IL1RL2-35 (VHH)
VHH: EVQLVESGGGLVQPGGSLRLSCAASGRTFSTYDMGWFRQAPGKEREFVAAISWSGGSTNYADSVKGRFTISADNSKNTAYLQMNSLKPEDTAVYYCADVNGDWGQGTLVTVSS
notes: VHH-Fc based on IgG2 Fc
B4: IL1RL2-20 (VHH)
VHH: B3 VHH with F29G, F47L, S54R, N59Y
notes: VHH-Fc based on IgG2 Fc
B5: IL1RL2-27 (VHH)
VHH: B3 VHH with R27G, T28R, A50S, S52V, S54I, S57R, N59Y
notes: VHH-Fc based on IgG2 Fc
B6: IL1RL2-17 (VHH)
VHH: EVQLVESGGGLVQPGGSLRLSCAASGRTFSTYDMGWFRQAPGKERELVASITFGGDTNYADSVKGRFTISADNSKNTAYLQMNSLKPEDTAVYYCADVNGDWGQGTLVTVSS
notes: VHH-Fc based on IgG2 Fc
B7: IL1RL2-5 (VHH)
VHH: B6 VHH with S30D, T31S, F53Y, G54L, D56R
notes: VHH-Fc based on IgG2 Fc
B8: IL1RL2-15 (VHH)
VHH: B6 VHH with L47F, S50V, T52N, F53Y, G54R, D56S, N58T
notes: VHH-Fc based on IgG2 Fc
B9: IL1RL2-179 (antibody, V domains shown)
VH: EVQLLESGGGLVQPGGSLRLSCAASGFTFSPRRMSWVRQAPGKGLEWVSTIDDLGRHTYYADSVKGRFTISRDNSKNTLYLQMNSLRAEDTAVYYCAKLANSLLFDYWGQGTLVTVSS
VL: DIQMTQSPSSLSASVGDRVTITCRASENIYSNLAWYQQKPGKAPKLLIYAASDLESGVPSRFSGSGSGTDFTLTISSLQPEDFATYYCGATDLSPWSIVFDQGTKVEIK
notes: IgG2
B10: IL1RL2-187 (antibody, V domains shown)
VH: EVQLLESGGGLVQPGGSLRLSCAASGFTLSSYAMSWVRQAPGKGLEWVSSISSSGGYTGYADSVKGRFTISRDNSKNTLYLQMNSLRAEDTAVYYCAKSFSFFDYWGQGTLVTVSS
VL: DIQMTQSPSSLSASVGDRVTITCRASQSISSYVNWYQQKPGKAPKLLIYGSSYLQSGVPSRFSGSGSGTDFTLTISSLQPEDFATYYCQQNNNWPTTFGQGTKVEIK
notes: IgG2
B11: IL1RL2-300 (antibody, V domains shown)
VH: EVQLLESGGGLVQPGGSLRLSCAASGFTFSGYAMNWVRQAPGKGLEWVSTISGSGVSTYYADSVKGRFTISRDNSKNTLYLQMNSLRAEDTAVYYCAREQHLVEGDFDNWGQGTLVTVSS
VL: B10 VL with A25T, V33L, G50A, S51A, Y53S, N91S, N92Y, W94I, T96Y
notes: IgG2
B12: IL1RL2-165 (antibody, V domains shown)
VH: EVQLLESGGGLVQPGGSLRLSCAASGFTFSSAAMSWVRQAPGKGLEWVSAISGSGGNTYYADSVKGRFTISRDNSKNTLYLQMNSLRAEDTAVYYCARSYGGGFDYWGQGTLVTVSS
VL: DIQMTQSPSSLSASVGDRVTITCSGHNLGDKFASWYQQKPGKAPKLLIYSASNLESGVPSRFSGSGSGTDFTLTISSLQPEDFATYYCQSYASQGIHYVFGQGTKVEIK
notes: IgG2
B13: IL1RL2-285 (antibody, V domains shown)
VH: EVQLLESGGGLVQPGGSLRLSCAASGFTFSNFAMSWVRQAPGKGLEWVSTISGSGGSTSYADSVKGRFTISRDNSKNTLYLQMNSLRAEDTAVYYCAREKRSSGWYPHFDYWGQGTLVTVSS
VL: DIQMTQSPSSLSASVGDRVTITCRASQTIGTYLNWYQQKPGKAPKLLIYGGSRLQSGVPSRFSGSGSGTDFTLTISSLQPEDFATYYCQQSYSTPYTFGGGTKVEIK
notes: IgG2
B14: IL1RL2-299 (antibody, V domains shown)
VH: EVQLLESGGGLVQPGGSLRLSCAASGFIFSRYAMSWVRQAPGKGLEWVSAISESGGNTYYADSVKGRFTISRDNSKNTLYLQMNSLRAEDTAVYYCARQRYPGGSGSYADYWGQGTLVTVSS
VL: B13 VL with T28S, G30S, Y32D, G51V, R53S, Y92H, Y96F
notes: IgG2
B15: IL1RL2-298 (antibody, V domains shown)
VH: B13 VH with S30P, N31S, F32Y, S35A, T50A, G56S, T58P, S59Y
VL: DIQMTQSPSSLSASVGDRVTITCRASRSIDTYLNWYQQKPGKAPKLLIYGGSRLQSGVPSRFSGSGSGTDFTLTISSLQPEDFATYYCQQSYSTPPVTFGGGTKVEIK
notes: IgG2
B16: IL1RL2-302 (antibody, V domains shown)
VH: EVQLLESGGGLVQPGGSLRLSCAASGFPLSSYAMSWVRQAPGKGLEWVSLISGSGVSTYYADSVKGRFTISRDNSKNTLYLQMNSLRAEDTAVYYCARGWGAAEEWGQGTLVTVSS
VL: DIQMTQSPSSLSASVGDRVTITCRASQRISNYLHWYQQKPGKAPKLLIYAASRLHSGVPSRFSGSGSGTDFTLTISSLQPEDFATYYCQQSHTIPYTFGQGTKVEIK
notes: IgG2
B17: IL1RL2-180 (antibody, V domains shown)
VH: EVQLLESGGGLVQPGGSLRLSCAASGFTFSDYDMSWVRQAPGKGLEWVSAIEGAGSDTYYADSVKGRFTISRDNSKNTLYLQMNSLRAEDTAVYYCARLAPEFDYWGQGTLVTVSS
VL: DIQMTQSPSSLSASVGDRVTITCRASQSISSYVNWYQQKPGKAPKLLIYQNDKRPSGVPSRFSGSGSGTDFTLTISSLQPEDFATYYCQPSFYFPYAFGQGTKVEIK
notes: IgG2
B18: IL1RL2-153 (antibody, V domains shown)
VH: EVQLLESGGGLVQPGGSLRLSCAASGFIFQWYDMGWVRQAPGKGLEWVSSIRGSSSSTYYADSVKGRFTISRDNSKNTLYLQMNSLRAEDTAVYYCARDLGDYWGQGTLVTVSS
VL: DIQMTQSPSSLSASVGDRVTITCRASQNIRSYLNWYQQKPGKAPKLLIYDDIDRPSGVPSRFSGSGSGTDFTLTISSLQPEDFATYYCQTWGPGIRVFGQGTKVEIK
notes: IgG2

The target in the first assay is T1, IL1RL2. The assay is described as follows: SPR (Carterra LSA), antibody immobilised, 1:1 model.
Procedure: SPR experiments were performed on a Carterra LSA SPR biosensor equipped with a HC30M chip at 25° C. in HBS-TE. Antibodies were diluted to 10 μg/mL and amine-coupled to the sensor chip by EDC/NHS activation, followed by ethanolamine HCl quenching. Increasing concentrations of analyte were flowed over the sensor chip in HBS-TE with 0.5 mg/mL BSA with 5-minute association and 15-minute dissociation. Following each injection cycle the surface was regenerated with 2× 30-second injections of IgG elution buffer (Thermo). Data were analyzed in Carterra's Kinetics Tool software with 1:1 binding model.
For B1, binding was put at a Kd of 3.59 nM; the koff (in general, the first-order rate constant of dissociation) turned out to be 0.000126 s⁻¹; the kon – broadly, a measure of how fast the partners come together – came out at 35000 M⁻¹ s⁻¹.
For B2, the dissociation constant (Kd) (usually a measure of binding affinity in units of concentration) stood at 12.1 nM, the koff worked out at 0.000485 s⁻¹ and the kon was determined as 40200 M⁻¹ s⁻¹.
With B3, the Kd was determined as 4.74 nM, the koff stood at 0.000593 s⁻¹ and the kon was 125000 M⁻¹ s⁻¹.
Take B4: the Kd was 3.28 nM, the koff was determined as 0.000363 s⁻¹ and the kon turned out to be 111000 M⁻¹ s⁻¹.
Turning to B5, binding was put at a Kd of 1.32 nM, the koff is 0.000143 s⁻¹ and the kon was found to be 108000 M⁻¹ s⁻¹.
Consider B6, for which the equilibrium dissociation constant (Kd) came to 1.45 nM, the koff came out at 0.00024 s⁻¹ and the on-rate (kon) was determined as 166000 M⁻¹ s⁻¹.
With B7, binding was characterised by a dissociation constant (Kd) of 2.72 nM, the koff is 0.000343 s⁻¹ and the kon worked out at 126000 M⁻¹ s⁻¹.
The corresponding values for B8 are 4.13 nM, 0.000218 s⁻¹ and 52700 M⁻¹ s⁻¹.

Another assay addresses T2, IL1RL2 over-expressed on Expi293 cells. The assay is described as follows: flow cytometry titration on over-expressing Expi293 cells. (In general: Flow cytometry measures light scatter and fluorescence of single cells or particles in a stream.)
Procedure: (§1) All incubations and washes were in buffer containing PBS+1% BSA. MFI Ratio is defined by the mean fluorescence intensity (MFI) of the cytokine over-expressing Expi293 cell over the Expi293 parent cell. […] EC50 was calculated in GraphPad Prism.
With B1, a half-maximal effect (EC50) was put at 3.02 nM.
B9: the EC50 (commonly the concentration that produces a half-maximal response) was 27.5 nM.
Regarding B10, a half-maximal response (EC50) required 2.26 nM.
Still for that read-out and setting: the figure for B11 is 1.57 nM.
Take B2: a half-maximal response (EC50) required 0.528 nM.
In the case of B12, the 50% effective concentration (EC50) is 34.5 nM.
In turn, B3 gave a concentration for a half-maximal effect (EC50) of 0.508 nM.
In turn, B4 registered a half-maximal effective concentration (EC50) of 9.03 nM.
The same measure, in the same setting: for B5 the value was 64.2 nM.
B13: the EC50 turned out to be 618 nM.
Turning to B14, the concentration for a half-maximal effect (EC50) is 2.25 nM.
With B15, the midpoint of the response, the EC50, lay at 100 nM.
For B16, the EC50 came out at 1.1 nM.
On the same count and under the same terms, for B17 the value was 15.2 nM; for B6, 11.2 nM; for B7, 13.4 nM.
With B8, a half-maximal response (EC50) required 0.622 nM.
Still for that read-out and setting: for B18 the value was 445 nM.

For the next assay the target is unchanged. The assay is described as follows: flow cytometry, over-expressing Expi293 vs parent cells, 100 nM antibody.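 Note: ratio is mean fluorescence intensity on over-expressing Expi293 cells divided by that measured on parental Expi293 cells.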
Procedure: as §1
Turning to B1, the “100 nM FACS (MFI Ratio)” value came to 15.4.
B9: the “100 nM FACS (MFI Ratio)” value turned out to be 17.7.
Take B10: the “100 nM FACS (MFI Ratio)” value is 45.
Turning to B11, the “100 nM FACS (MFI Ratio)” value stood at 23.9.
The same measure, in the same setting: the figure for B2 is 33.8.
For the molecule B12, the “100 nM FACS (MFI Ratio)” value amounted to 707.
For B3, the “100 nM FACS (MFI Ratio)” value was found to be 15.6.
B4: the “100 nM FACS (MFI Ratio)” value came to 11.6.
Regarding B5, the “100 nM FACS (MFI Ratio)” value turned out to be 14.
Still for that read-out and setting: for B13 the value was 214; for B14, 19.2.
For B15, the “100 nM FACS (MFI Ratio)” value is 49.6.
For B16, the “100 nM FACS (MFI Ratio)” value is 192.
With B17, the “100 nM FACS (MFI Ratio)” value came to 21.5.
Turning to B6, the “100 nM FACS (MFI Ratio)” value amounted to 15.6.
For B7, the “100 nM FACS (MFI Ratio)” value stood at 13.9.
Turning to B8, the “100 nM FACS (MFI Ratio)” value worked out at 14.4.
B18: the “100 nM FACS (MFI Ratio)” value came to 350.
